Experimental data from US20240083958A1, “G PROTEIN PEPTIDOMIMETICS” (VRIJE UNIVERSITEIT BRUSSEL, priority 2020, published 2024).
Read-outs that look alike come from different tables or passages of the source. Bridge positions count the residues as written; N and C are the ends. Square brackets hold non-standard residues; d marks the D form. Primed or numbered codes have the meaning given here. Azk = residue with azidated side chain, clicked to Pra; Pra′ = residue with alkynyl side chain, clicked to Azk; Lys(N3) = [N-]=[N+]=NCCCC[C@H](N)C(=O)O; R8 = C=CCCCCCC[C@@](C)(N)C(=O)O; Cha = N[C@@H](CC1CCCCC1)C(=O)O; R5 = C=CCCC[C@@](C)(N)C(=O)O; S5 = C=CCCC[C@](C)(N)C(=O)O; Pra = C#CC[C@H](N)C(=O)O

Legend:
[1] = molecular target: dopamine 1 receptor (D1R) (Homo sapiens, UniProt P21728); experiment: GPCR-radioligand binding assay (RLA) with dopamine 1 receptor (D1R), [3H]-SCH23390 as radiolabelled antagonist, A-77636 (agonist), in presence and absence of the peptidomimetic; conditions: Table 19; peptidomimetic at 10 μM; ratio IC50 D1R alone / IC50 D1R + peptidomimetic
Description: For the radioligand assays on D1R a similar buffer, as for β2AR, was used for the ligands, membrane extracts and peptides (+1% DMSO). The competition assay was performed with [^3H]-SCH23390 as radiolabelled antagonist, at a concentration of 2 nM. A ten-fold dilution series of the agonist, A-77636, was prepared to obtain a dose response curve, starting from 100 μM for the receptor alone and 10 μM in the presence of the peptidomimetics. After incubation, the samples were harvested into filter plates, pre-soaked with 0.5% polyethylenimine (PEI), and washed with ice cold washing buffer using the 96-well harvester. After drying in the oven during 1 h and the addition of scintillation liquid, the plates were placed in the MICROBETA® scintillation counter and incubated for 30 min in the dark before reading.
After the Microbeta scintillation counter, the experimental data was further analyzed using Graphpad Prism 6.0. After normalization of the raw data, a nonlinear regression was used to fit the data in a one-site binding model, with the total binding set as 100% and the non-specific binding between 0 and 5%. The IC50 values, obtained from the competition curves, were used to determine the shift for each peptide, which is the ratio of IC50 of the agonist test compound on the basal conformation (e.g. IC50 β2AR with no peptidomimetic) versus the active conformation (e.g. IC50 β2AR+peptidomimetic) of the receptor. For certain peptide analogues, a biphasic binding curve was observed and therefore fitted by a two-site model (nonlinear regression), resulting in two IC50 values (IC50Hi and IC50Lo) and a FractionHi, the fraction of receptors in the active state.
Peptidomimetics were screened using GPCR-radioligand binding assay (RLA) with dopamine 1 receptor (D1R) binding, using [^3H]-SCH23390 as radiolabelled antagonist, and increasing concentrations of A-77636 (agonist). The half maximal inhibitory concentration (IC50) represents the affinity of the agonist for the receptor. The selectivity is quantified by the shift. “[ ]” denotes cyclic peptides.

[2] = molecular target: T1, human β2AR (human, UniProt P07550 2-365); experiment: cell-based or functional assay
[3] = molecular target: T1, human β2AR; experiment: cell-based or functional assay; remark: listed apart in the source
[4] = molecular target: T1, human β2AR; experiment: cell-based or functional assay; remark: listed apart in the source
[5] = molecular target: T1, human β2AR; experiment: cell-based or functional assay; remark: listed apart in the source
[6] = molecular target: T1, human β2AR; experiment: cell-based or functional assay; remark: listed apart in the source
[7] = molecular target: T1, human β2AR; experiment: cell-based or functional assay; remark: listed apart in the source
[8] = molecular target: T1, human β2AR; experiment: cell-based or functional assay; remark: listed apart in the source
[9] = molecular target: T1, human β2AR; experiment: cell-based or functional assay; remark: listed apart in the source
[10] = molecular target: dopamine 1 receptor (D1R) (UniProt P21728 1-446, limits assumed); experiment: cell-based or functional assay
[11] = molecular target: T1, human β2AR; experiment: cell-based or functional assay; remark: listed apart in the source
[12] = molecular target: T1, human β2AR; experiment: cell-based or functional assay; remark: listed apart in the source
[13] = molecular target: T1, human β2AR; experiment: cell-based or functional assay; remark: listed apart in the source

Chain of dopamine 1 receptor (D1R) (UniProt P21728 1-446, limits assumed) (P21728 whole entry): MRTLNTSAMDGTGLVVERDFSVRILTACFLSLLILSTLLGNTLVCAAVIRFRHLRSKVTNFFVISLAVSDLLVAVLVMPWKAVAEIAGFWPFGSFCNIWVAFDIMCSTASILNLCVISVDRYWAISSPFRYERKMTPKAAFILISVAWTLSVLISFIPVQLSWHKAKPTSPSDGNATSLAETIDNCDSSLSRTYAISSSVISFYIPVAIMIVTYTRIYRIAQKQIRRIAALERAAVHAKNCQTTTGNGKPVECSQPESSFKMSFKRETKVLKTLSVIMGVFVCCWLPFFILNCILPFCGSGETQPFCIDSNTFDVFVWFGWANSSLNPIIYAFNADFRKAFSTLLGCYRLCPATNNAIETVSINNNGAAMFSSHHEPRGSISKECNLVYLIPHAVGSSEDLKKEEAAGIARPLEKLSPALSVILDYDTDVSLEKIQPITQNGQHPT
Chain of dopamine 1 receptor (D1R) (Homo sapiens, UniProt P21728) (P21728 whole entry): as above

Ac-FNDCRDIIQRMHLRQYEChaL-OH (FNDCRDIIQRMHLRQYEXL; HELM PEPTIDE1{[ac].F.N.D.C.R.D.I.I.Q.R.M.H.L.R.Q.Y.E.[Cha].L}$$$$V2.0; SMILES CC[C@H](C)[C@H](NC(=O)[C@H](CC(=O)O)NC(=O)[C@H](CCCNC(=N)N)NC(=O)[C@H](CS)NC(=O)[C@H](CC(=O)O)NC(=O)[C@H](CC(N)=O)NC(=O)[C@H](Cc1ccccc1)NC(C)=O)C(=O)N[C@H](C(=O)N[C@@H](CCC(N)=O)C(=O)N[C@@H](CCCNC(=N)N)C(=O)N[C@@H](CCSC)C(=O)N[C@@H](Cc1c[nH]cn1)C(=O)N[C@@H](CC(C)C)C(=O)N[C@@H](CCCNC(=N)N)C(=O)N[C@@H](CCC(N)=O)C(=O)N[C@@H](Cc1ccc(O)cc1)C(=O)N[C@@H](CCC(=O)O)C(=O)N[C@@H](CC1CCCCC1)C(=O)N[C@@H](CC(C)C)C(=O)O)[C@@H](C)CC) [compound 63]
Shift [1]: 24

Ac-KKKFN[PraCRDAzk]IQRMHLRQYELL-OH (Ac-KKKFN[Pra]CRD[Lys(N3)]IQRMHLRQYELL-OH; triazole 6-10) [compound 42]
Shift [1]: 32

B1: compound 14 (peptide)
peptide: Ac-FNDCRD[R8]IQRMHL[S5]QYELL-OH
modifications: staple 7-14
SMILES: CC[C@H](C)[C@@H]1NC(=O)[C@](C)(NC(=O)[C@H](CC(=O)O)NC(=O)[C@H](CCCNC(=N)N)NC(=O)[C@H](CS)NC(=O)[C@H](CC(=O)O)NC(=O)[C@H](CC(N)=O)NC(=O)[C@H](Cc2ccccc2)NC(C)=O)CCCCCCC=CCCC[C@@](C)(C(=O)N[C@@H](CCC(N)=O)C(=O)N[C@@H](Cc2ccc(O)cc2)C(=O)N[C@@H](CCC(=O)O)C(=O)N[C@@H](CC(C)C)C(=O)N[C@@H](CC(C)C)C(=O)O)NC(=O)[C@H](CC(C)C)NC(=O)[C@H](Cc2c[nH]cn2)NC(=O)[C@H](CCSC)NC(=O)[C@H](CCCNC(=N)N)NC(=O)[C@H](CCC(N)=O)NC1=O
Shift (averaged) [2]: 2 | IC50 (nM) of isoproterenol, [3H]-DHA RLA, peptidomimetic present [3]: 433 nM | Shift [3]: 2

Ac-FNDCRD[S5]IQR[S5]HLRQYELL-OH (staple 7-11) [compound 8]
Shift (averaged) [2]: 3 | IC50 (nM) of isoproterenol, [3H]-DHA RLA, peptidomimetic present [4]: 373 nM | Shift [4]: 2

H-FNDCRD[Pra′]IQR[Azk]HLRQYELL-OH (triazole 7-11) [compound 10]
Shift (averaged) [2]: 7 | IC50 (nM) of isoproterenol, [3H]-DHA RLA, peptidomimetic present [5]: 122 nM | Shift [5]: 7

B2: compound 63 (peptide)
peptide: FNDCRDIIQRMHLRQYEXL
HELM: PEPTIDE1{[ac].F.N.D.C.R.D.I.I.Q.R.M.H.L.R.Q.Y.E.[Cha].L}$$$$V2.0
SMILES: CC[C@H](C)[C@H](NC(=O)[C@H](CC(=O)O)NC(=O)[C@H](CCCNC(=N)N)NC(=O)[C@H](CS)NC(=O)[C@H](CC(=O)O)NC(=O)[C@H](CC(N)=O)NC(=O)[C@H](Cc1ccccc1)NC(C)=O)C(=O)N[C@H](C(=O)N[C@@H](CCC(N)=O)C(=O)N[C@@H](CCCNC(=N)N)C(=O)N[C@@H](CCSC)C(=O)N[C@@H](Cc1c[nH]cn1)C(=O)N[C@@H](CC(C)C)C(=O)N[C@@H](CCCNC(=N)N)C(=O)N[C@@H](CCC(N)=O)C(=O)N[C@@H](Cc1ccc(O)cc1)C(=O)N[C@@H](CCC(=O)O)C(=O)N[C@@H](CC1CCCCC1)C(=O)N[C@@H](CC(C)C)C(=O)O)[C@@H](C)CC
IC50 (nM) of isoproterenol, [3H]-DHA RLA, peptidomimetic present [6]: 3.96 nM | Shift [6]: 198 | Shift (averaged) [7]: 203 | Fraction HI (%) [8]: 81% | IC50 (nM) of isoproterenol, [3H]-DHA RLA, peptidomimetic present [8]: 7.3 nM | Shift [8]: 217 | IC50 (nM) of isoproterenol, [3H]-DHA RLA, peptidomimetic present [9]: 6.88 nM | Shift [9]: 118 | IC50 (nM) of A-77636, [3H]-SCH23390 RLA, compound 63 at 10 µM [10]: 0.55 nM

Ac-FNDCRD[Pra′]IQR[Azk]HLRQYELL-OH (triazole 7-11) [compound 11]
Shift (averaged) [2]: 7 | IC50 (nM) of isoproterenol, [3H]-DHA RLA, peptidomimetic present [5]: 116 nM | Shift [5]: 7

Ac-KKKFN[Pra′]CRD[Azk]IQRMHLRQYE[Cha]L-OH (triazole 6-10) [compound 51]
Fraction HI (%) [11]: 83% | IC50 (nM) of isoproterenol, [3H]-DHA RLA, peptidomimetic present [11]: 2.8 nM | Shift [11]: 580 | Shift (averaged) [7]: 400 | IC50 (nM) of isoproterenol, [3H]-DHA RLA, compound 51 at 1 µM [12]: 56.4 nM | IC50 (nM) of isoproterenol, [3H]-DHA RLA, compound 51 at 10 µM [12]: 6.7 nM | IC50 (nM) of isoproterenol, [3H]-DHA RLA, compound 51 at 50 µM [12]: 6.9 nM | IC50 (nM) of isoproterenol, [3H]-DHA RLA, compound 51 at 100 µM [12]: 3.4 nM | IC50 (nM) of A-77636, [3H]-SCH23390 RLA, compound 51 at 10 µM [10]: 0.25 nM

B3: compound 9 (peptide)
peptide: FNDCRDXIQRXHLRQYELL
HELM: PEPTIDE1{[ac].F.N.D.C.R.D.[C#CC[C@H](N[*:1])C(=O)[*:2]].I.Q.R.[[N-]=[N+]=NCCCC[C@H](N[*:1])C(=O)[*:2]].H.L.R.Q.Y.E.L.L}$$$$V2.0
SMILES: C#CC[C@H](NC(=O)[C@H](CC(=O)O)NC(=O)[C@H](CCCNC(=N)N)NC(=O)[C@H](CS)NC(=O)[C@H](CC(=O)O)NC(=O)[C@H](CC(N)=O)NC(=O)[C@H](Cc1ccccc1)NC(C)=O)C(=O)N[C@H](C(=O)N[C@@H](CCC(N)=O)C(=O)N[C@@H](CCCNC(=N)N)C(=O)N[C@@H](CCCCN=[N+]=[N-])C(=O)N[C@@H](Cc1c[nH]cn1)C(=O)N[C@@H](CC(C)C)C(=O)N[C@@H](CCCNC(=N)N)C(=O)N[C@@H](CCC(N)=O)C(=O)N[C@@H](Cc1ccc(O)cc1)C(=O)N[C@@H](CCC(=O)O)C(=O)N[C@@H](CC(C)C)C(=O)N[C@@H](CC(C)C)C(=O)O)[C@@H](C)CC
Shift (averaged) [2]: 4 | IC50 (nM) of isoproterenol, [3H]-DHA RLA, peptidomimetic present [5]: 211 nM | Shift [5]: 4

B4: compound 13 (peptide)
peptide: Ac-FNDCRDIIQR[R5]HL[S5]QYELL-OH
modifications: staple 11-14
SMILES: CC[C@H](C)[C@H](NC(=O)[C@H](CC(=O)O)NC(=O)[C@H](CCCNC(=N)N)NC(=O)[C@H](CS)NC(=O)[C@H](CC(=O)O)NC(=O)[C@H](CC(N)=O)NC(=O)[C@H](Cc1ccccc1)NC(C)=O)C(=O)N[C@H](C(=O)N[C@@H](CCC(N)=O)C(=O)N[C@@H](CCCNC(=N)N)C(=O)N[C@]1(C)CCCC=CCCC[C@@](C)(C(=O)N[C@@H](CCC(N)=O)C(=O)N[C@@H](Cc2ccc(O)cc2)C(=O)N[C@@H](CCC(=O)O)C(=O)N[C@@H](CC(C)C)C(=O)N[C@@H](CC(C)C)C(=O)O)NC(=O)[C@H](CC(C)C)NC(=O)[C@H](Cc2c[nH]cn2)NC1=O)[C@@H](C)CC
Shift (averaged) [2]: 3 | IC50 (nM) of isoproterenol, [3H]-DHA RLA, peptidomimetic present [3]: 312 nM | Shift [3]: 3

Ac-KKKFN[Pra′]CRD[Azk]IQRMHLRQYELL-OH (triazole 6-10) [compound 42]
Shift (averaged) [7]: 49 | IC50 (nM) of isoproterenol, [3H]-DHA RLA, peptidomimetic present [13]: 27.4 nM | Shift [13]: 42 | IC50 (nM) of A-77636, [3H]-SCH23390 RLA, compound 42 at 10 µM [10]: 0.41 nM
